{"source": "patent US6994974", "about": "(TRUSTEES OF COLUMBIA UNIVERSITY IN THE CITY OF NEW YORK, dated 2006)", "binders": {"B1": {"name": "TrcHis-chloramphenicol acetyltransferase (CAT) fusion protein (other)", "chain": "MEKKITGYTTVDISQWHRKEHFEAFQSVAQCTYNQTVQLDITAFLKTVKKNKHKFYPAFIHILARLMNAHPEFRMAMKDGELVIWDSVHPCYTVFHEQTETFSSLWSEYHDDFRQFLHIYSQDVACYGENLAYFPKGFIENMFFVSANPWVSFTSFDLNVANMDNFFAPVFTMGKYYTQGDKVLMPLAIQVHHAVCDGFHVGRMLNELQQYCDEWQGGA", "notes": "also called TrcHis-CAT; not shown: N-terminal TrcHis leader of the Invitrogen control construct"}}, "molecular_target": "T1, amyloid-beta peptide (1-40), freshly prepared synthetic (UniProt P05067 672-711, 125I label when used as tracer; residue not stated)", "T1 construct": "domain: amyloid-beta peptide (1-40)", "assay": "radioligand binding to coated microtiter wells"}
{"binder": "B1", "values": [{"measurement": "binding result", "value": "no binding (tested: 100 nM)"}]}
